Experiments:
[1] = tested on: MORC4 ATPase domain (Homo sapiens); assay: fluorescence polarization; details: EMSA DNA: 20 mM Tris-HCl pH 7.5, 150 mM NaCl, 2.5 mM MgCl2, 2 mM DTT, on ice; EMSA NCP: 25 mM Tris-HCl pH 7.5, 75 mM NaCl, 0.005% Tween 20, 10% glycerol, 4 C …
[2] = tested on: MORC4 ATPaseCW (Homo sapiens); assay: fluorescence polarization; details: EMSA DNA: 20 mM Tris-HCl pH 7.5, 150 mM NaCl, 2.5 mM MgCl2, 2 mM DTT, on ice; EMSA NCP: 25 mM Tris-HCl pH 7.5, 75 mM NaCl, 0.005% Tween 20, 10% glycerol, 4 C …
[3] = tested on: LexA; assay: FRET; details: EMSA DNA: 20 mM Tris-HCl pH 7.5, 150 mM NaCl, 2.5 mM MgCl2, 2 mM DTT, on ice, EMSA NCP: 25 mM Tris-HCl pH 7.5, 75 mM NaCl, 0.005% Tween 20, 10% glycerol, 4 C …
[4] = tested on: Gal4 DNA-binding domain; assay: FRET; details: EMSA DNA: 20 mM Tris-HCl pH 7.5, 150 mM NaCl, 2.5 mM MgCl2, 2 mM DTT, on ice, EMSA NCP: 25 mM Tris-HCl pH 7.5, 75 mM NaCl, 0.005% Tween 20, 10% glycerol, 4 C …

Substance: NCP147
- K half [1]: 2300 nM
- K half [2]: 400 nM

Substance: NCP147 LexA
- K half ([3]; 1 uM MORC4 ATPaseCW): 2400 nM
- K half ([3]; no MORC4): 900 nM

Substance: NCP207
- K half [1]: 500 nM
- K half [2]: 200 nM

Substance: NCP252 Gal4
- K half ([4]; no MORC4): 20 nM
- K half ([4]; saturating MORC4 ATPaseCW, 0.3 mM ATP): 100 nM
- K half ([4]; saturating MORC4 ATPaseCW, no ATP): 40 nM

Reference: article PMC7596504, “Molecular mechanism of the MORC4 ATPase activation” (Nature Communications, 2020)
